Measured values reported in article PMC10693965.

Substrate: C[N+](C)(C)CCO
Assay: cells, lysate or membranes
Format: cell-based, Clonorchis sinensis
Details: ND96 (96 mM Na+), pH 7.4, 22–25°C, sodium-dependent, labelled compound

B1: CsChT (Clonorchis sinensis) (protein)
chain: MLYIPGLIAIIIFYLLILLVGFWAARKSRSNPAGTTETEDVMLAGRNIGLIVGIFTMTATWVGGGYINGTAENTFRPGQGLVWCQAPIGYAASLVLGGFFFAKRMRSLAFVTMLDPFQNKYGERMCGLLFIPALLGETFWSAAILSALGATLGVIVELDHTTSVIISACIALLYTLFGGLYSVAYTDVVQLFCIFVGLWISLPFALLNKATVPISQTWDRWKGSVEAVDAGIYVDNLLMLTFGGIPWQVYFQRVLSCRTAKQAQILSFVAAIGCLIMALPSVLIGAVGASTDWNMTGYGRAENFTIPDGEAKLVLPLVLRYLCPVWVSFVGLGAVSAAVMSSSDSSVLSAASMFARNVVKPVFWQSATERQIIWVMRASIFGVGALSCLLAICIQSIYGLWYLCSDLIYVILFPQLICVLYVRFSNTYGSLIGYILGLFVRLTSGEALLGLPALFKYPYFYDDPQDFYQRFPCKTFAMLCTLVVTIVVSYFTDLYFRKDSKRLKYDFFHCYKQRASASGSIHIGNRFNRPSIRTAKLPIQVPEVDSENADVDENSNKNSNTLDNNKPLA
In the case of B1, the Km is reported as 8.3 µM.
